# Read-outs that look alike come from different tables or passages of the source.
# B1: ADT1-4-8 (antibody, IgG1, V domains shown)
# VH: EVQLQQSGPGLVKPSQTLSLTCAISGDSVSSKSAAWNWIRQSPSRGLEWLGRTYYRSKWSTDYAASVKSRITINPDTSKNQLSLQLNSVTPEDTAVYYCARSWVGYVDVWGQGTLVTVSS
# VL: DIQMTQSPPALSASVGDRVTITCRASQDINDWLAWYQHKPGKAPKLLIYDASSLESGVPLRFSGSGSGTEFTLTISSLQPDDFATYYCQQKYSAPQVTFGQGTRLEIK
# notes: IgG1
# B2: ADT1-4-2/ADT3-5 (bispecific antibody)
# heavy: EVQLQQSGPGLVKPSQTLSLTCAISGDSVSSKSAAWNWIRQSPSRGLEWLGRTYYRSKWSTDYAASVKSRITINPDTSKNQLSLQLNSVTPEDTAVYYCARTWVGYVDRWGQGTLVTVSSASTKGPSVFPLAPSSKSTSGGTAALGCLVKDYFPEPVTVSWNSGALTSGVHTFPAVLQSSGLYSLSSVVTVPSSSLGTQTYICNVNHKPSNTKVDKKVEPKSCDKTHTCPPCPAPELAGAPSVFLFPPKPKDTLMISRTPEVTCVVVDVSHEDPEVKFNWYVDGVEVHNAKTKPREEQYNSTYRVVSVLTVLHQDWLNGKEYKCKVSNKALPAPIEKTISKAKGQPREPQVYTLPPSRDELTKNQVSLTCLVKGFYPSDIAVEWESTYGPENNYKTTPPVLDSDGSFFLYSKLTVSYWRWYKGNVFSCSVMHEALHNHYTQKSLSLSPG
# light: DIQMTQSPPALSASVGDRVTITCRASQDINDWLAWYQHKPGKAPKLLIYDASSLESGVPLRFSGSGSGTEFTLTISSLQPDDFATYYCQQKYSAPQVTFGQGTRLEIKRTVAAPSVFIFPPSDEQLKSGTASVVCLLNNFYPREAKVQWKVDNALQSGNSQESVTEQDSKDSTYSLSSTLTLSKADYEKHKVYACEVTHQGLSSPVTKSFNRGEC
# notes: mAb2; also called ADT1-4-2xLEE1
# How the values were obtained:
# [1] = target: T1, cyno antigen DV1/GV77, recombinant cynomolgus Vδ1 γδ TCR heterodimer (cynomolgus monkey); experiment: SPR
# T1 construct: also called cyno TRDV1; Cyno DV1-77; not shown: Delta-chain CDR3/J and constant part, the GV77 gamma chain, and any tags
# [2] = target: T2, L1 (DV1-GV4), recombinant soluble human Vδ1/Vγ4 γδ TCR heterodimer (human); experiment: SPR
# T2 construct: Biotinylated in the DELFIA ranking assay; also called human TRDV1; human Vδ1 antigen
# [3] = target: T3, human EGFR, recombinant protein (human, UniProt P00533 25-645)
# T3 construct: Bought protein; also called human EGFR antigen
# [4] = target: T2, L1 (DV1-GV4), recombinant soluble human …; experiment: SPR; remark: listed apart in the source
# [5] = target: T3, human EGFR, recombinant protein; experiment: SPR
# T2 sequence (main, as listed by the source): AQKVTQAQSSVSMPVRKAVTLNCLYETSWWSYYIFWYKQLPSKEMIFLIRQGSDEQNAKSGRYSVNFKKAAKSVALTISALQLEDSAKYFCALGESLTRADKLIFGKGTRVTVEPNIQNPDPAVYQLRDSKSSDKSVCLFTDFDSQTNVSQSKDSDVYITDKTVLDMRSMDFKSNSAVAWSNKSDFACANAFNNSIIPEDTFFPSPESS
# T1 sequence (delta, as listed by the source limits assumed): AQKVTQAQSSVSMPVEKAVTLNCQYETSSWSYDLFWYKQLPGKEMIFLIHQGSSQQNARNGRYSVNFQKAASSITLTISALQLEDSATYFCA
Binder,Kd [1] [nM],Kd [2] [nM],Kd [3] [nM],Kd [4] [nM],Kd [5] [nM]
B1,15.1,0.541,–,–,–
B2,–,–,140,0.883,142

# Source: patent publication US20240132599A1 (GAMMADELTA THERAPEUTICS, published 2024)
